# Patent publication US20080153132
# Target: prothrombin, P00734
protein,measurement,value
genetic recombinant ecarin (protein) IILGSGNVNDYEVVYPQKVTALPKGAVQQPEQKYEDAMQYEFEVKGEPVVLHLEKNKELFSEDYSETHYSSDDREITTNPSVEDHCYYHGRIQNDAESTASISACNGLKGHFKLRGETYFIEPLKIPDSEAHAVYKYENIENEDEAPKMCGVTQDNWESDEPIKKTLGLIVPPHERKFEKKFIELVVVVDHSMVTKYNNDSTAIRTWIYEMLNTVNEIYLPFNIRVALVGLEFWCNGDLINVTSTADDTLHSFGEWRASDLLNRKRHDHAQLLTNVTLDHSTLGITFVYGMCKSDRSVELILDYSNITFNMAYIIAHEMGHSLGMLHDTKFCTCGAKPCIMFGKESIPPPKEFSSCSYDQYNKYLLKYNPKCILDPPLRKDIASPAVCGNEIWEEGEECDCGSPADCRNPCCDAATCKLKPGAECGNGECCDKCKIRKAGTECRPARDDCDVAEHCTGQSAECPRNEFQRNGQPCLNNSGYCYNGDCPIMLNQCIALFSPSATVAQDSCFQRNLQGSYYGYCTKEIGYYGKRFPCAPQDVKCGRLYCLDNSFKKNMRCKNDYSYADENKGIVEPGTKCEDGKVCINRKCVDVNTAY,N-terminal amino acid sequence of the thrombin B chain after activation,the recombinant ecarin obtained according to the present invention specifically cleaves the peptide bond at the Arg-Ile site in prothrombin like snake venom derived ecarin
same,activity to cleave S-2238 (thrombin enzymatic activity after 16 hours at 37 C with 2 U/mL recombinant ecarin),the activity to cleave S-2238 was detected in prothrombin when added with the recombinant ecarin
